Results as given in PMC11086168, “Combining the Benefits of Biotin–Streptavidin Aptamer Immobilization with the Versatility of Ni-NTA Regeneration Strategies for SPR”.

Experiments:
[1] = biological target: T1, 6xHis-streptavidin (His-SA) (UniProt P22629 25-183); test: EMSA; binding through 5' biotin; LSPR on Ni-NTA chip with His-SA capture; sample buffer PBS-T (1X PBS, 0.05% Tween 20); immobilization in PBS-T or PBS-I (1X PBS, 300 mM NaCl total, pH 8.0); 20; conditions: protein: commercial; tags: 6xHis; chain copies: 4; label: 5' biotin
thrombin [2] = biological target: T2, thrombin (human plasma, UniProt P00734;P00734 328-363;364-622); test: SPR (LSPR); Experiment 7; surface immobilized in PBS-I; printed as KA from Hill fit; BSA present; LSPR on Ni-NTA chip with His-SA capture; sample buffer PBS-T (1X PBS, 0.05% Tween 20); immobilization in PBS-T or PBS-I (1X PBS, 300 mM NaCl total, pH 8.0); 20
thrombin [3] = biological target: T2, thrombin; test: SPR (LSPR); Experiment 8; reused surface of Experiment 7, no new immobilization; printed as KA from Hill fit; BSA present; LSPR on Ni-NTA chip with His-SA capture; sample buffer PBS-T (1X PBS, 0.05% Tween 20); immobilization in PBS-T or PBS-I (1X PBS, 300 mM NaCl total, pH 8.0); 20
thrombin [4] = biological target: T2, thrombin; test: SPR (LSPR); Experiment 1; PBS-T; printed as KA from Hill fit (half-saturation, in nM); aptamer immobilized on His-SA/Ni-NTA; BSA present; LSPR on Ni-NTA chip with His-SA capture; sample buffer PBS-T (1X PBS, 0.05% Tween 20); immobilization in PBS-T or PBS-I (1X PBS, 300 mM NaCl total, pH 8.0); 20
[5] = biological target: T1, 6xHis-streptavidin (His-SA); test: EMSA; no biotin; 1 µM 29mer; LSPR on Ni-NTA chip with His-SA capture; sample buffer PBS-T (1X PBS, 0.05% Tween 20); immobilization in PBS-T or PBS-I (1X PBS, 300 mM NaCl total, pH 8.0); 20; conditions: protein: commercial; tags: 6xHis; chain copies: 4

T1 sequence (P22629 25-183): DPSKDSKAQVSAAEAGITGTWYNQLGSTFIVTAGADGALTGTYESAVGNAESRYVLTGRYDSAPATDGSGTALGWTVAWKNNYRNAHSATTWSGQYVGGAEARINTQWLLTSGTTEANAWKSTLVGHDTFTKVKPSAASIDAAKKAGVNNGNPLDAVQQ

B1: B-29mer (biotinylated thrombin-binding aptamer) (structured_DNA)
DNA: AGTCCGTGGTAGGGCAGGTTGGGGTGACT
modifications: 5' biotin (5Biosg)
In the case of B1, the binding result [1] is reported as “binds”, the Kd (thrombin [2]) is reported as 18.6 nM and the Kd (thrombin [3]) is reported as 10.3 nM. For the same binder, the Kd (thrombin [4]) was 31.2 nM.

B2: unlabeled 29mer (structured_DNA)
DNA: AGTCCGTGGTAGGGCAGGTTGGGGTGACT
B2: no binding [5].
